Reference: US20140057847A1
pKd: −log10 of the molar value.

Target: rat growth hormone releasing hormone receptor (rat) (UniProt Q02644)
Test: radioligand competition binding of radioiodinated JV-1-42 to membrane fractions of ischemic rat heart

Chain of UniProt Q02644 (Q02644 23-464): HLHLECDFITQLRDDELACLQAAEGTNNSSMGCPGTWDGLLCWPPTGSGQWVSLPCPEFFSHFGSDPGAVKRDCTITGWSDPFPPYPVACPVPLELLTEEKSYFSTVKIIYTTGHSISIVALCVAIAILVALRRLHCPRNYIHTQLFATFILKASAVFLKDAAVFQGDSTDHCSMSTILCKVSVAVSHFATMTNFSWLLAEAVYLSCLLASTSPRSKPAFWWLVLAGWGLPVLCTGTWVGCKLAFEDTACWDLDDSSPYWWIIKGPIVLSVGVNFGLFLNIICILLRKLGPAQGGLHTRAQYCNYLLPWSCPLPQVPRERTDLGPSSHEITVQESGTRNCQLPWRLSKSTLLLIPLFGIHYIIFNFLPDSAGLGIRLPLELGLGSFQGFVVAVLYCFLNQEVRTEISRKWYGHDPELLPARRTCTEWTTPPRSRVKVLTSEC

Substance: GHRH antagonist JV-1-42 (radioiodinated) (peptide)
- Bmax (fmol/mg protein): 51.3
- pKd: 9.07
